The data set deals with the molecule itself. Put plainly: intrinsic tryptophan fluorescence (parameter A, fluorescence anisotropy r) with GdnHCl unfolding-refolding curves; recombinant bOBP 0.1-0.2 mg/mL in 20 mM Na-phosphate pH 7.8 with PEG-600, PEG-4000 or PEG-12000 at 80, 150 or 300 mg/mL; incubated at 4 °C, measured at 23 °C; monomer to dimer, inferred from raised anisotropy and sigmoidal unfolding curves. For orientation: Polarisation of emitted light reports the rotation of a fluorescent probe.

B1: recombinant bovine odorant-binding protein (natural protein)
chain: AQEEEAEQNLSELSGPWRTVYIGSTNPEKIQENGPFRTYFRELVFDDEKGTVDFYFSVKRDGKWKNVHVKATKQDDGTYVADYEGQNVFKIVSLSRTHLVAHNINVDKHGQTTELTELFVKLNVEDEDLEKFWKLTEDKGIDKKNVVNFLENEDHPHPE
notes: Written as the single chain that associates with itself into the domain-swapped dimer; also called bOBP; recombinant bOBP; source: E. coli BL21(DE3), purified (Ni+-agarose, HisGraviTrap columns)
On to B1, for which the binding result is on record as “binds”.

Source of the values: paper PMC4841217, “Structure and stability of recombinant bovine odorant-binding protein: III. Peculiarities of the wild type bOBP unfolding in crowded milieu” (PeerJ, 2016).
